The record followed here is patent US20180312591A1 (ONCOSYNERGY, published 2018).

To fix the notation:
B1: composite human antibody variant H1 (antibody, V domains shown)
VH: EVQLVQSGAEVKKPGSSVKVSCKASGYTFTGYILSWVRQAPGQGLEWIGWVDPEYGSTDSAEKFKKRVTITADISTSTAYMELSSLRSEDTATYFCTRYYDGYYRRWFAYWGQGTLVTVSS
VL: DIQMTQSPSSLSASVGDRVTITCLASEGISNNLAWYQQKPGKAPKLLIYGAHSLHDGVPDRFSGSGSGTDYTLKISRVEAEDVGVYYCQQGYKYPITFGGGTKVEIK
notes: also called VH5VK3
B2: composite human antibody variant H6 (antibody, V domains shown)
VH: EVQLVQSGAEVKKPGSSVKVSCKASGYTFTGYILSWVRQAPGQGLEWIGWVDPEYGSTDSAEKFKKRVTITADISTSTAYMELSSLRSEDTATYFCTRYYDGYYRRWFAYWGQGTLVTVSS
VL: DIQMTQSPSSLSASVGDRVTITCLASEGISNNLAWHQQKPGKAPQLLIYGAHSLHDGVPDRFSGSGSGTDYTLKISGMQPEDEGVYYCQQGYKYPITFGGGTKVEIK
notes: also called VH5VK1
B3: composite human antibody variant H13 (antibody, V domains shown)
VH: EVQLVQSGAEVKKPGSSVKISCKASGYTFTGYILSWVRQAPGQGLEWIGWVDPEYGSTDSAEKFKKRATLTADISTNTAYIELSSLRSEDTATYFCTRYYDGYYRRWFAYWGQGTLVTVSS
VL: DIQMTQSPSSLSASVGDRVTITCLASEGISNNLAWYQQKPGKAPKLLIYGAHSLHDGVPDRFSGSGSGTDFTLKISRVEAEDVGVYYCQQGYKYPITFGGGTKVEIK
notes: also called VH2VK4
B4: composite human antibody variant H4 (antibody, V domains shown)
VH: EVQLVQSGAEVKKPGSSVKVSCKASGYTFTGYILSWVRQAPGQGLEWIGWVDPEYGSTDSAEKFKKRVTITADISTSTAYMELSSLRSEDTATYFCTRYYDGYYRRWFAYWGQGTLVTVSS
VL: DIQMTQSPSSLSASVGDRVTITCLASEGISNNLAWYQQKPGKAPKLLIYGAHSLHDGVPDRFSGSGSGTDFTLKISRVEAEDVGVYYCQQGYKYPITFGGGTKVEIK
notes: also called VH5VK4
B5: composite human antibody variant H11 (antibody, V domains shown)
VH: EVQLVQSGAEVKKPGSSVKISCKASGYTFTGYILSWVRQAPGQGLEWIGWVDPEYGSTDSAEKFKKRATLTADISTSTAYIELSSLRSEDTATYFCTRYYDGYYRRWFAYWGQGTLVTVSS
VL: DIQMTQSPSSLSASVGDRVTITCLASEGISNNLAWYQQKPGKAPKLLIYGAHSLHDGVPDRFSGSGSGTDYTLKISRVEAEDVGVYYCQQGYKYPITFGGGTKVEIK
notes: also called VH3VK3
B6: composite human antibody variant H5 (antibody, V domains shown)
VH: EVQLVQSGAEVKKPGSSVKVSCKASGYTFTGYILSWVRQAPGQGLEWIGWVDPEYGSTDSAEKFKKRVTITADISTSTAYMELSSLRSEDTATYFCTRYYDGYYRRWFAYWGQGTLVTVSS
VL: DIQMTQSPSSLSASVGDRVTITCLASEGISNNLAWHQQKPGKAPKLLIYGAHSLHDGVPDRFSGSGSGTDYTLKISRVEAEDVGVYYCQQGYKYPITFGGGTKVEIK
notes: also called VH5VK2
B7: composite human antibody variant H3 (antibody, V domains shown)
VH: EVQLVQSGAEVKKPGSSVKVSCKASGYTFTGYILSWVRQAPGQGLEWIGWVDPEYGSTDSAEKFKKRATITADISTSTAYMELSSLRSEDTATYFCTRYYDGYYRRWFAYWGQGTLVTVSS
VL: DIQMTQSPSSLSASVGDRVTITCLASEGISNNLAWYQQKPGKAPKLLIYGAHSLHDGVPDRFSGSGSGTDFTLKISRVEAEDVGVYYCQQGYKYPITFGGGTKVEIK
notes: also called VH4VK4
B8: composite human antibody variant H8 (antibody, V domains shown)
VH: EVQLVQSGAEVKKPGSSVKVSCKASGYTFTGYILSWVRQAPGQGLEWIGWVDPEYGSTDSAEKFKKRATITADISTSTAYMELSSLRSEDTATYFCTRYYDGYYRRWFAYWGQGTLVTVSS
VL: DIQMTQSPSSLSASVGDRVTITCLASEGISNNLAWHQQKPGKAPKLLIYGAHSLHDGVPDRFSGSGSGTDYTLKISRVEAEDVGVYYCQQGYKYPITFGGGTKVEIK
notes: also called VH4VK2
B9: composite human antibody variant H2 (antibody, V domains shown)
VH: EVQLVQSGAEVKKPGSSVKISCKASGYTFTGYILSWVRQAPGQGLEWIGWVDPEYGSTDSAEKFKKRATLTADISTSTAYIELSSLRSEDTATYFCTRYYDGYYRRWFAYWGQGTLVTVSS
VL: DIQMTQSPSSLSASVGDRVTITCLASEGISNNLAWHQQKPGKAPQLLIYGAHSLHDGVPDRFSGSGSGTDYTLKISGMQPEDEGVYYCQQGYKYPITFGGGTKVEIK
notes: also called VH3VK1
B10: composite human antibody variant H10 (antibody, V domains shown)
VH: EVQLVQSGAEVKKPGSSVKISCKASGYTFTGYILSWVRQAPGQGLEWIGWVDPEYGSTDSAEKFKKRATLTADISTSTAYIELSSLRSEDTATYFCTRYYDGYYRRWFAYWGQGTLVTVSS
VL: DIQMTQSPSSLSASVGDRVTITCLASEGISNNLAWYQQKPGKAPKLLIYGAHSLHDGVPDRFSGSGSGTDFTLKISRVEAEDVGVYYCQQGYKYPITFGGGTKVEIK
notes: also called VH3VK4
B11: composite human antibody variant H15 (antibody, V domains shown)
VH: EVQLVQSGAEVKKPGSSVKISCKASGYTFTGYILSWVRQAPGQGLEWIGWVDPEYGSTDSAEKFKKRATLTADISTNTAYIELSSLRSEDTATYFCTRYYDGYYRRWFAYWGQGTLVTVSS
VL: DIQMTQSPSSLSASVGDRVTITCLASEGISNNLAWHQQKPGKAPKLLIYGAHSLHDGVPDRFSGSGSGTDYTLKISRVEAEDVGVYYCQQGYKYPITFGGGTKVEIK
notes: also called VH2VK2
B12: composite human antibody variant H19 (antibody, V domains shown)
VH: EVQLVQSGPEVKKPGSSVKISCKASGYTFTGYILSWVKQAPGQGLEWIGWVDPEYGSTDSAEKFKKRATLTADISTNTAYIQLSSLRSEDTATYFCTRYYDGYYRRWFAYWGQGTLVTVSS
VL: DIQMTQSPSSLSASVGDRVTITCLASEGISNNLAWHQQKPGKAPQLLIYGAHSLHDGVPDRFSGSGSGTDYTLKISGMQPEDEGVYYCQQGYKYPITFGGGTKVEIK
notes: also called VH1VK1

This experiment concerns the target T1, human integrin β1 (human, UniProt P05556 21-798).
T1 construct: whole, on cells; the antibodies are described as anti-human integrin β1; also called CD29; ITGB1
The experiment can be described thus: competition FACS on Jurkat cells; competitor murine OS2966 (0.1875 µg/ml). The method, then:
Binding of composite human antibody variants (from Table 2) was assessed in a competition FACS assay with the OS2966 murine chimeric antibody (murine OS2966 Fab sliced to human Fc). In brief, a dilution series (three-fold) of chimeric or humanized antibodies starting from 25.0 μg/ml was premixed with a constant concentration of murine OS2966 (0.1875 μg/ml) in FACS buffer (1% BSA in 1×PBS pH 7.4) before mixing with 3×10⁵ Jurkat cells. […] After incubating on ice for 45 min, cells were washed, resuspended in 300 μl FACS buffer and analyzed on a Beckton Dickinson FACScalibur™. The geometric mean fluorescence intensity was plotted against antibody concentration (FIGS. 20-24).
Consider B1, for which the “relative IC50 (IC50 of test antibody / IC50 of chimeric antibody)” value was 0.88 ratio to chimeric antibody. Under B2 stands 1.24 ratio to chimeric antibody; under B3, 2 ratio to chimeric antibody; under B4, 3.26 ratio to chimeric antibody. Under B5 stands 1.58 ratio to chimeric antibody. Under B6 stands 0.85 ratio to chimeric antibody.

Turning to B7, the “relative IC50 (IC50 of test antibody / IC50 of chimeric antibody)” value is 2.7 ratio to chimeric antibody.

As to B8, the “relative IC50 (IC50 of test antibody / IC50 of chimeric antibody)” value was 1.18 ratio to chimeric antibody.

Take B9: the “relative IC50 (IC50 of test antibody / IC50 of chimeric antibody)” value is 0.97 ratio to chimeric antibody. Under B10 stands 2.76 ratio to chimeric antibody; under B11, 1.32 ratio to chimeric antibody. Under B12 stands 1.13 ratio to chimeric antibody.
